Measurements published in the supplement of paper PMC10567573.

B1: PPFIA4 (parent)
chain: VMTLPSDLRKHRRKLLSPVSREEN
B2: ZNF449 (parent)
chain: RIHSGEEPHKCPECGKRFLRSSDL

Variants of: B1
Experiment: protein stability index of a GFP-peptide fusion (GPS, HEK-293T) (PSI 1-6); higher = more stable
Conditions: c terminus: a fixed tail appended
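Note: lentivirally expressed fusions sorted by FACS into six bins by GFP to DsRed ratio, PSI derived from sequencing read proportions per bin multiplied by bin number.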

Protein stability index of substitutions, site by site:
L16: G 4.43
L15: P 4.11 | V 3.81
S6: A 3.93
N24: T 3.73
K10: Q 4.29
R9: M 3.53
H11: Y 3.35
D7: G 3.62
L8: G 3.56

Variants of: B2
Experiment: as above
Conditions: c terminus: a fixed tail appended

Protein stability index of substitutions, site by site:
R1: A 3.75 | C 5.29 | D 4.13 | E 4.41 | F 1.38 | G 3.74 | H 4.07 | I 2.38 | K 3.6 | L 2.92 | M 3.4 | N 3.72 | P 4.04 | Q 4.11 | S 3.86 | T 3.37 | V 3.05 | W 2.28 | Y 1.9
I2: A 3.42 | C 5.05 | D 4.06 | E 3.5 | F 3.1 | G 2.78 | H 3.46 | K 3.43 | L 3.77 | M 3.48 | N 4.19 | P 3.57 | Q 3.91 | R 3.7 | S 3.18 | T 4.76 | V 3.98 | W 3.9 | Y 3.79
H3: A 3.48 | C 3.76 | D 3.85 | E 3.48 | F 2.63 | G 2.72 | I 3.25 | K 2.7 | L 3.69 | M 3.05 | N 3.55 | P 3.69 | Q 4.33 | R 3.02 | S 3.74 | T 3.81 | V 3.34 | Y 3.32
S4: A 3.34 | D 3.56 | E 3.7 | F 2.3 | G 3.06 | H 3.18 | I 3.07 | K 3.19 | L 3.19 | M 2.55 | N 4 | P 3.16 | Q 4.12 | R 2.54 | T 3.53 | V 2.44 | W 2.5 | Y 2.84
